From the supplement of paper PMC7877785
± gives the uncertainty stated by the source.

Assay: self-splicing fitness, log relative to wild type (ln ratio); higher = more splicing; Tetrahymena group I intron in knt gene, E. coli kanamycin selection, DiMSum; sequences stand for … in CUCUCU…GGAGGGAAAAGUUAUCAGGCAUGCACCUGGUAGCUAGUCUUUAAACCAAUAGAUUGCAUCGGUUUAAAAGGCAAGACCGUCAAAUUGCGGGAAAGGGGUCAACAGCCGUUCAGUACCAAGUCUCAGGGGAAACUUUGAGAUGGCCUUGCAAAGGGUAUGGUAAUAAGCUGACGGACAUGGUCCUAACCACGCAGCCAAGUCCUAAGUCAACAGAUCUUCUGUUGAUAUGGAUGCAGUUCACAGACUAAAUGUCGGUCGGGGAAGAUGUAUUCUUCUCAUAAGAUAUAGUCGGACCUCUCCUUAAUGGGAGCUAGCGGAUGAAGUGAUGCAACACUGGAGCCGCUGGGAACUAAUUUGUAUGCGAAAGUAUAUUGAUUAGUUUUGGAGUACUCGUGGUCG
How it was run: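 Six replicate transformations of E. coli BL21(DE3) with a pET-22b(+) library were grown overnight at 37°C or 30°C. The library randomised all eight P1ex-region intron nucleotides, the intron lying in the knt kanamycin-resistance gene, and plates were LB agar with or without 25 μg/mL kanamycin plus 100 μg/mL carbenicillin, 50 μM IPTG and 0.2% rhamnose. Pooled colonies were amplicon-sequenced on an Illumina HiSeq 2500, and fitness is the DiMSum error-weighted combination of wild-type-normalised replicate fold changes, kanamycin versus none.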

In the case of UGGGAGCAAUAUUACGAAUG, the “self-splicing fitness (ln)” value (30 °C) is reported as -1.99 ± 0.21 and the “self-splicing fitness (ln)” value (37 °C) is reported as -2.07 ± 0.33.

In the case of UUAAAGCAAUAUUACGCUUA, the “self-splicing fitness (ln)” value (30 °C) is reported as -1.02 ± 0.083 and the “self-splicing fitness (ln)” value (37 °C) is reported as -0.561 ± 0.11.

In the case of GUGGAGCAAUAUUACGCUAG, the “self-splicing fitness (ln)” value (30 °C) is reported as -3.24 ± 0.19 and the “self-splicing fitness (ln)” value (37 °C) is reported as -2.36 ± 0.2.

In the case of AGACAGCAAUAUUACGAUAU, the “self-splicing fitness (ln)” value (30 °C) is reported as -1.93 ± 0.064 and the “self-splicing fitness (ln)” value (37 °C) is reported as -0.802 ± 0.07.

With GUUUAGCAAUAUUACGCACG the “self-splicing fitness (ln)” value (30 °C) was -2.48 ± 0.44.

For GGCCAGCAAUAUUACGUCUU, the “self-splicing fitness (ln)” value (30 °C) was -0.247 ± 0.081 and the “self-splicing fitness (ln)” value (37 °C) was -0.523 ± 0.082.

In the case of UAUAAGCAAUAUUACGAGGC, the “self-splicing fitness (ln)” value (37 °C) is reported as -2.5 ± 0.39.

For AUCAAGCAAUAUUACGGGAA, the “self-splicing fitness (ln)” value (30 °C) was -1.87 ± 0.13 and the “self-splicing fitness (ln)” value (37 °C) was -0.563 ± 0.12.

In the case of UGGAAGCAAUAUUACGCUAA, the “self-splicing fitness (ln)” value (30 °C) is reported as -1.31 ± 0.32 and the “self-splicing fitness (ln)” value (37 °C) is reported as -0.826 ± 0.38.

For CUAAAGCAAUAUUACGGUGU, the “self-splicing fitness (ln)” value (30 °C) was -4.65 ± 0.25 and the “self-splicing fitness (ln)” value (37 °C) was -3.05 ± 0.21.

For UUACAGCAAUAUUACGUGCC, the “self-splicing fitness (ln)” value (30 °C) was -2.86 ± 0.15 and the “self-splicing fitness (ln)” value (37 °C) was -0.031 ± 0.13.

In the case of AAUCAGCAAUAUUACGCAGG, the “self-splicing fitness (ln)” value (30 °C) is reported as -1.51 ± 0.11 and the “self-splicing fitness (ln)” value (37 °C) is reported as 0.11 ± 0.097.

In the case of GCGGAGCAAUAUUACGUUCA, the “self-splicing fitness (ln)” value (30 °C) is reported as -0.896 ± 0.11 and the “self-splicing fitness (ln)” value (37 °C) is reported as -0.33 ± 0.096.

For CUAGAGCAAUAUUACGUGUU, the “self-splicing fitness (ln)” value (30 °C) was -3.3 ± 0.26 and the “self-splicing fitness (ln)” value (37 °C) was -2.8 ± 0.3.

For CGGAAGCAAUAUUACGCAAU, the “self-splicing fitness (ln)” value (30 °C) was -3 ± 0.26 and the “self-splicing fitness (ln)” value (37 °C) was -2.69 ± 0.26.

In the case of UUGUAGCAAUAUUACGAAUG, the “self-splicing fitness (ln)” value (30 °C) is reported as -3.32 ± 0.41 and the “self-splicing fitness (ln)” value (37 °C) is reported as -1.93 ± 0.29.

In the case of UAGAAGCAAUAUUACGAGCA, the “self-splicing fitness (ln)” value (30 °C) is reported as -1.27 ± 0.096 and the “self-splicing fitness (ln)” value (37 °C) is reported as 0.167 ± 0.1.

With GGCAAGCAAUAUUACGACGG the “self-splicing fitness (ln)” value (30 °C) was -2.85 ± 0.16 and the “self-splicing fitness (ln)” value (37 °C) was -2.72 ± 0.2.

For AAAUAGCAAUAUUACGUCUA, the “self-splicing fitness (ln)” value (30 °C) was -0.412 ± 0.077 and the “self-splicing fitness (ln)” value (37 °C) was 0.205 ± 0.084.

With CUGCAGCAAUAUUACGGCUC the “self-splicing fitness (ln)” value (30 °C) was -2.57 ± 0.22 and the “self-splicing fitness (ln)” value (37 °C) was -2.96 ± 0.43.

For GACAAGCAAUAUUACGGCGU, the “self-splicing fitness (ln)” value (30 °C) was -0.596 ± 0.063 and the “self-splicing fitness (ln)” value (37 °C) was -0.154 ± 0.08.

For UCAUAGCAAUAUUACGGUCG, the “self-splicing fitness (ln)” value (30 °C) was -1.14 ± 0.083 and the “self-splicing fitness (ln)” value (37 °C) was -0.0517 ± 0.1.

With AUUAAGCAAUAUUACGAUUU the “self-splicing fitness (ln)” value (30 °C) was -0.227 ± 0.091 and the “self-splicing fitness (ln)” value (37 °C) was 1.04 ± 0.12.

For UAGAAGCAAUAUUACGAUGC, the “self-splicing fitness (ln)” value (30 °C) was -1.9 ± 0.24 and the “self-splicing fitness (ln)” value (37 °C) was -0.852 ± 0.2.

In the case of GAUCAGCAAUAUUACGUGCU, the “self-splicing fitness (ln)” value (30 °C) is reported as -3.41 ± 0.15 and the “self-splicing fitness (ln)” value (37 °C) is reported as -2.2 ± 0.16.

In the case of UUGUAGCAAUAUUACGAAAG, the “self-splicing fitness (ln)” value (30 °C) is reported as -2.43 ± 0.32 and the “self-splicing fitness (ln)” value (37 °C) is reported as -2.69 ± 0.34.

In the case of UAGAAGCAAUAUUACGGUAU, the “self-splicing fitness (ln)” value (30 °C) is reported as -3.08 ± 0.2 and the “self-splicing fitness (ln)” value (37 °C) is reported as -2.55 ± 0.17.

In the case of CAAGAGCAAUAUUACGCCUU, the “self-splicing fitness (ln)” value (30 °C) is reported as -3.52 ± 0.32 and the “self-splicing fitness (ln)” value (37 °C) is reported as -2.57 ± 0.41.

In the case of CAAAAGCAAUAUUACGCAUC, the “self-splicing fitness (ln)” value (30 °C) is reported as -3.35 ± 0.11 and the “self-splicing fitness (ln)” value (37 °C) is reported as -1.52 ± 0.12.

With AUCAAGCAAUAUUACGACAG the “self-splicing fitness (ln)” value (30 °C) was -3.07 ± 0.17 and the “self-splicing fitness (ln)” value (37 °C) was -1.7 ± 0.18.

For CGACAGCAAUAUUACGAAAA, the “self-splicing fitness (ln)” value (30 °C) was -3.75 ± 0.26 and the “self-splicing fitness (ln)” value (37 °C) was -1.93 ± 0.2.

With ACUGAGCAAUAUUACGGGCG the “self-splicing fitness (ln)” value (30 °C) was -2.3 ± 0.15 and the “self-splicing fitness (ln)” value (37 °C) was -1.01 ± 0.18.

With GUCGAGCAAUAUUACGCGCU the “self-splicing fitness (ln)” value (30 °C) was -2.6 ± 0.3 and the “self-splicing fitness (ln)” value (37 °C) was -1.17 ± 0.32.

In the case of GUAUAGCAAUAUUACGCUGG, the “self-splicing fitness (ln)” value (30 °C) is reported as -2.35 ± 0.17 and the “self-splicing fitness (ln)” value (37 °C) is reported as -1.01 ± 0.18.

With AGUCAGCAAUAUUACGCGGA the “self-splicing fitness (ln)” value (30 °C) was -3.11 ± 0.26 and the “self-splicing fitness (ln)” value (37 °C) was -1.79 ± 0.18.

For GGGUAGCAAUAUUACGUAUG, the “self-splicing fitness (ln)” value (37 °C) was -1.84 ± 0.19.

In the case of GGAUAGCAAUAUUACGAGCA, the “self-splicing fitness (ln)” value (30 °C) is reported as -1.26 ± 0.26 and the “self-splicing fitness (ln)” value (37 °C) is reported as -1.05 ± 0.14.

In the case of GAUCAGCAAUAUUACGUGUC, the “self-splicing fitness (ln)” value (30 °C) is reported as -2.74 ± 0.11 and the “self-splicing fitness (ln)” value (37 °C) is reported as -2.19 ± 0.17.

In the case of UCCGAGCAAUAUUACGGUUA, the “self-splicing fitness (ln)” value (30 °C) is reported as -0.525 ± 0.058 and the “self-splicing fitness (ln)” value (37 °C) is reported as -0.174 ± 0.063.

For CUCAAGCAAUAUUACGGUUC, the “self-splicing fitness (ln)” value (30 °C) was -3.65 ± 0.17 and the “self-splicing fitness (ln)” value (37 °C) was -2.74 ± 0.16.

With CUGUAGCAAUAUUACGCUUG the “self-splicing fitness (ln)” value (30 °C) was -2.62 ± 0.14 and the “self-splicing fitness (ln)” value (37 °C) was -2.02 ± 0.16.

For CGUCAGCAAUAUUACGACAA, the “self-splicing fitness (ln)” value (30 °C) was -0.159 ± 0.14 and the “self-splicing fitness (ln)” value (37 °C) was 0.0303 ± 0.14.

For UCGCAGCAAUAUUACGUCUA, the “self-splicing fitness (ln)” value (30 °C) was -0.18 ± 0.11 and the “self-splicing fitness (ln)” value (37 °C) was 0.716 ± 0.12.

For CUGGAGCAAUAUUACGACCA, the “self-splicing fitness (ln)” value (30 °C) was -1.68 ± 0.31 and the “self-splicing fitness (ln)” value (37 °C) was -1.61 ± 0.38.

In the case of GUUUAGCAAUAUUACGAUGA, the “self-splicing fitness (ln)” value (30 °C) is reported as -2.41 ± 0.21 and the “self-splicing fitness (ln)” value (37 °C) is reported as -1.39 ± 0.14.

For UCUAAGCAAUAUUACGCUGC, the “self-splicing fitness (ln)” value (30 °C) was -3.41 ± 0.19 and the “self-splicing fitness (ln)” value (37 °C) was -2.84 ± 0.19.

For UUAGAGCAAUAUUACGGCUG, the “self-splicing fitness (ln)” value (30 °C) was -0.433 ± 0.12 and the “self-splicing fitness (ln)” value (37 °C) was 0.354 ± 0.17.

For GUUAAGCAAUAUUACGCCAG, the “self-splicing fitness (ln)” value (30 °C) was -3.1 ± 0.23 and the “self-splicing fitness (ln)” value (37 °C) was -2.75 ± 0.28.
